Tests used:
[1] = target: T1, human IL-33 (R&D Systems, #3625-IL-010/CF) (human, UniProt O95760 112-270); test: SPR 37C, pH6.0 chase, mAb captured
T1 construct: Commercial recombinant protein; also called hIL-33; interleukin-33
T1 sequence (looked up): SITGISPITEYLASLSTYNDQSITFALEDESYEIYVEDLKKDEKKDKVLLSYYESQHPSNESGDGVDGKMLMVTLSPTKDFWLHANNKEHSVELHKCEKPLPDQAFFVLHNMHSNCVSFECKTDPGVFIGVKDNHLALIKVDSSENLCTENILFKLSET
Protocol: (§1) Equilibrium dissociation constants (KD values) for IL-33 binding to purified anti-IL-33 monoclonal antibodies were determined using a real-time surface plasmon resonance biosensor using a Biacore 4000 instrument. The Biacore sensor surface was first derivatized by amine coupling with either a polyclonal rabbit anti-mouse antibody (GE, # BR-1008-38) or with a monoclonal mouse anti-human Fc antibody (GE, # BR-1008-39) to capture anti-IL-33 monoclonal antibodies expressed with mouse or with human IgG4 constant regions, respectively. All Biacore binding studies were performed in 0.01M ADA pH 7.4, 0.15M NaCl, 3 mM EDTA, and 0.05% v/v Surfactant Tween-20 (ABS-ET running buffer). […] Association of either hIL-33 or MfIL-33-6His to the captured monoclonal antibody was monitored for 4 minutes and their dissociation in ABS-ET running buffer was monitored for 10 minutes. The effect of reduced pH on the binding of each anti-IL-33 antibody to either hIL-33 or MfIL-33-6His was studied using an in-line pH chase assay format in 0.01M ADA pH 6.0, 0.15M NaCl, 3 mM EDTA, and 0.05% v/v Surfactant Tween-20 (ABS-ET pH6 buffer). To achieve this, association of either hIL-33 or MfIL-33-6His to the captured monoclonal antibody was monitored for 4 minutes in ABS-ET running buffer. Following a 30 second dissociation of either hIL-33 or MfIL-33-6His in ABS-ET running buffer, ABS-ET pH6 buffer was injected for 3 minutes, and the analyte dissociation under the low-pH conditions was measured. All the binding kinetic experiments were performed at both 25° C. and 37° C. Kinetic association (kₐ) and dissociation (kd) constants were determined by fitting the real-time sensorgrams to a 1:1 binding model using Scrubber 2.0c curve fitting software. Binding dissociation equilibrium constants (KD) and dissociative half-lives (t½) were calculated from the kinetic rate constants as: […]

[2] = target: T2, cynomolgus monkey IL-33 expressed with a C-terminal hexahistidine tag (cynomolgus monkey); test: SPR 37C, pH6.0 chase, mAb captured
T2 construct: also called MfIL-33-6His; Mf-IL-33-6His
T2 chain: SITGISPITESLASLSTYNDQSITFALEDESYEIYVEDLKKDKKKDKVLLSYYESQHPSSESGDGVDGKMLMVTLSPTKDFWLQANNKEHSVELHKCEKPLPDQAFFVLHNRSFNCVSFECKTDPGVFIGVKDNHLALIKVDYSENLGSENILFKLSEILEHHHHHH
Protocol: as §1

[3] = target: T2, cynomolgus monkey IL-33 expressed with …; test: BLI; captured MfIL-33-6His, mAb-1 step with Buffer
Protocol: (§2) Binding competition between a panel of different anti-IL-33 monoclonal antibodies was determined using a real time, label-free bio-layer interferometry assay on an Octet® HTX biosensor (ForteBio, A Division of Pall Life Sciences). The experiment was performed at 25° C. using a buffer of 0.01M HEPES pH7.4, 0.15M NaCl, 3 mM EDTA, 0.05% v/v Surfactant Tween-20, and 0.1 mg/ml BSA (HBS-ET kinetics buffer) with the plate shaking at a speed of 1000 rpm. […] The antigen-captured biosensors were then saturated with a first anti-IL-33 monoclonal antibody (subsequently referred to as mAb-1) by immersion into wells containing 50 μg/mL solution of mAb-1 for 5 minutes. The biosensors were then dipped into wells containing a 50 μg/mL solution of a second anti-IL-33 monoclonal antibody (subsequently referred to as mAb-2) for 4 minutes. The biosensors were washed in HBS-ET kinetics buffer in between every step of the experiment. The real-time binding response was monitored during the experiment, and the maximum binding response for each binding step was recorded. The response of mAb-2 binding to MfIL-33-6His pre-complexed with mAb-1 was measured, and competitive/non-competitive behavior of different anti-IL-33 monoclonal antibodies with respect to each other was determined.

[4] = target: T1, human IL-33 (R&D Systems, …); test: SPR 37C pH7.4, mAb captured
Protocol: as §1

[5] = target: T2, cynomolgus monkey IL-33 expressed with …; test: SPR 37C pH7.4, mAb captured
Protocol: as §1

[6] = target: T2, cynomolgus monkey IL-33 expressed with …; test: BLI; mAb-1 on captured MfIL-33-6His
Protocol: as §2

[7] = target: T1, human IL-33 (R&D Systems, …); test: SPR 25C pH7.4, mAb captured
Protocol: as §1

[8] = target: T2, cynomolgus monkey IL-33 expressed with …; test: SPR 25C pH7.4, mAb captured
Protocol: as §1

[9] = target: T1, human IL-33 (R&D Systems, …); test: cell-based or functional assay
[10] = target: T2, cynomolgus monkey IL-33 expressed with …; test: cell-based or functional assay

B1: H4H9659P (antibody, human IgG4, V domains shown)
VH: QVQLVQSGAEVKKPGASVKVSCKASGYTFNSYGISWVRQAPGQGLEWMGWISSHNGNSHYVQKFQGRVSMTTDTSTSTAYMELRSLRSDDTAVYYCARHSYTTSWYGGFDYWGQGTLVTVSS
VL: DIQMTQSPSSVSASVGDRVTITCRASQGFSSWLAWYQQKPGKAPQLLIYAASSLQSGVPSRFSGSGSGSDFTLTISSLQPEDFATYYCQQANSFPLTFGGGTKVEIK
notes: Human IgG4 Fc (H4H)
B1 was tested, and the koff [1] was 0.00299 s⁻¹, the t½ [1] was 4 min and the “t½ Ratio (pH 7.4/pH 6.0)” value [1] was 7.4. For the same binder, the koff [2] was 0.00102 s⁻¹, the t½ [2] was 11 min and the “t½ Ratio (pH 7.4/pH 6.0)” value [2] was 0.5. The “mAb-2 Binding to the Pre-complex of mAb-1 & MfIL-33-6xHis” value (“mAb-2 Binding to the Pre-complex” below) [3] was 0.31 nm, the Kd [4] was 0.57 nM and the koff [4] was 0.000403 s⁻¹. It also gave a kon [4] of 707000 M⁻¹ s⁻¹, a t½ [4] of 29 min and a Kd [5] of 3.11 nM. For the same binder, the koff [5] was 0.00186 s⁻¹, the kon [5] was 598000 M⁻¹ s⁻¹ and the t½ [5] was 6 min. For the same binder, the “mAb-1 Binding (nm)” value [6] was 0.56 nm, the Kd [7] was 0.327 nM and the koff [7] was 0.000172 s⁻¹. It also gave a kon [7] of 526000 M⁻¹ s⁻¹, a t½ [7] of 67 min and a Kd [8] of 1.5 nM. It also gave a koff [8] of 0.000486 s⁻¹, a kon [8] of 325000 M⁻¹ s⁻¹ and a t½ [8] of 24 min. The “IC50, inhibition of 10 pM hIL-33 activation of HEK293/hST2/NFkB-luciferase cells” value [9] was 4.7e-11 M and the “IC50, inhibition of 5 pM MfIL-33-6His activation of HEK293/hST2/NFkB-luciferase cells” value [10] was 3.3e-09 M.

B2: H4H9660P (antibody, human IgG4, V domains shown)
VH: EVQLVESGGGLVQPGGSLRLSCAASGITLSSYGMSWVRQAPGKGLEWVASIFGSGGGPYYADSVKGRFTMSRDNSKNTLYLQMNSLRAEDTAVYYCAKDRYSGSYYGGFDYWGRGTLVTVSS
VL: DIQMTQSPSSVSASVGDRVTITCRASQGITSWLAWYQQKPGKAPTLLIYAASSLQTGVPSRFSGSGSGTDFTLTISSLQPEHFATYYCQQANSFPPTFGGGTKVEIK
notes: Human IgG4 Fc (H4H)
With B2 the koff [1] was 0.00323 s⁻¹, the t½ [1] was 4 min and the “t½ Ratio (pH 7.4/pH 6.0)” value [1] was 6.8. For the same binder, the koff [2] was 0.00463 s⁻¹, the t½ [2] was 2.5 min and the “t½ Ratio (pH 7.4/pH 6.0)” value [2] was 1. The “mAb-2 Binding to the Pre-complex” value [3] was 0.3 nm, the Kd [4] was 0.596 nM and the koff [4] was 0.000479 s⁻¹. For the same binder, the kon [4] was 803000 M⁻¹ s⁻¹, the t½ [4] was 24 min and the Kd [5] was 6.53 nM. The koff [5] was 0.00444 s⁻¹, the kon [5] was 680000 M⁻¹ s⁻¹ and the t½ [5] was 2.6 min. For the same binder, the “mAb-1 Binding (nm)” value [6] was 0.58 nm, the Kd [7] was 0.322 nM and the koff [7] was 0.000224 s⁻¹. The kon [7] was 696000 M⁻¹ s⁻¹, the t½ [7] was 52 min and the Kd [8] was 3.49 nM. For the same binder, the koff [8] was 0.00149 s⁻¹, the kon [8] was 426000 M⁻¹ s⁻¹ and the t½ [8] was 8 min. For the same binder, the “IC50, inhibition of 10 pM hIL-33 activation of HEK293/hST2/NFkB-luciferase cells” value [9] was 3.5e-11 M and the “IC50, inhibition of 5 pM MfIL-33-6His activation of HEK293/hST2/NFkB-luciferase cells” value [10] was 1.9e-08 M.

B3: H1M9566N (antibody, mouse IgG1, V domains shown)
VH: EVQLLESGGDLVQPGGSLRLSCAASGFTFSSYAMSWVRQAPGKGLEWVSVISGSGSSTDYADSVKGRFTISRDNSRDTLHLQMNSLRAEDTAVYYCAKTFYYFYGLDVWGQGTTVTVSS
VL: DIQMTQSPSSLSASLRDRVTITCRASQGISNYLAWYQQKPGKVPKVLIYAASTLQSGVPSRFSGSGSGTVFTLTISSLQTEDVATYYCQKYSSAPFTFGPGTKVDIK
notes: Human variable domains, mouse IgG1 Fc (H1M)
With B3 the koff [1] was 0.000967 s⁻¹, the t½ [1] was 12 min and the “t½ Ratio (pH 7.4/pH 6.0)” value [1] was 3.4. The koff [2] was 0.00115 s⁻¹, the t½ [2] was 10 min and the “t½ Ratio (pH 7.4/pH 6.0)” value [2] was 2.9. The “mAb-2 Binding to the Pre-complex” value [3] was 0.39 nm, the Kd [4] was 1.7 nM and the koff [4] was 0.000283 s⁻¹. The kon [4] was 166000 M⁻¹ s⁻¹, the t½ [4] was 41 min and the Kd [5] was 1 nM. It also gave a koff [5] of 0.0004 s⁻¹, a kon [5] of 399000 M⁻¹ s⁻¹ and a t½ [5] of 29 min. The “mAb-1 Binding (nm)” value [6] was 0.58 nm, the kon [7] was 127000 M⁻¹ s⁻¹ and the Kd [8] was 0.333 nM. The koff [8] was 9.75e-05 s⁻¹, the kon [8] was 293000 M⁻¹ s⁻¹ and the t½ [8] was 119 min. The “IC50, inhibition of 10 pM hIL-33 activation of HEK293/hST2/NFkB-luciferase cells” value [9] was 9.5e-10 M and the “IC50, inhibition of 5 pM MfIL-33-6His activation of HEK293/hST2/NFkB-luciferase cells” value [10] was 1.5e-09 M.
